{"source": "paper PMC7606452", "target": "recombinant K18 tau K311Q (acetylation-mimic) (human)", "assay": "Thioflavin T fluorescence of heparin-induced aggregation; 10 μM K18 tau, 100 mM sodium acetate pH 7.0, 2 mM DTT, 10 μM heparin, 37 °C; 10 μM ThT, 430 nm excitation and 500 nm emission"}
{"substance": "recombinant K18 tau K311Q (acetylation-mimic) (domain or fragment)", "values": [{"measurement": "fold increase in ThT-positive fibrils against WT or K311R", "result": 3, "unit": "fold"}]}
